From IntAct's records for PubMed 18562279

Molecular target: akt1_human AKT1 (UniProt P31749)
Sequence (P31749 whole entry): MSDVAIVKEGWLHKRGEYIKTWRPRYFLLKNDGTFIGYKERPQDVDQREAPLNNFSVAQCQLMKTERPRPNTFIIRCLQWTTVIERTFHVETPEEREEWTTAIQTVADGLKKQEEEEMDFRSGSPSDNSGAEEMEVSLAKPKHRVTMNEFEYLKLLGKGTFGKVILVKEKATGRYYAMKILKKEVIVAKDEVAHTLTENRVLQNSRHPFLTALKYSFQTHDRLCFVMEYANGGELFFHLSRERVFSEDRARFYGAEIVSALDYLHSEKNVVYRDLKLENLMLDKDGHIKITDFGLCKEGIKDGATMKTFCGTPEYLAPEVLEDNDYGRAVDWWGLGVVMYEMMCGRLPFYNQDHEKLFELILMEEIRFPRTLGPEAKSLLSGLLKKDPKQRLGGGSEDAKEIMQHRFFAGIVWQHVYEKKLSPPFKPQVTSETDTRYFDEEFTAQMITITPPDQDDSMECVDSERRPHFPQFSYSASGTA

## THO complex subunit 4 (Homo sapiens) (from UniProt Q86V81) S34A
  effect of a mutation on the interaction: disrupting interaction

## THO complex subunit 4 (Homo sapiens) (from UniProt Q86V81) T219A
  effect of a mutation on the interaction: disrupting interaction
